From paper PMC4596688 (2015)
Ends that are not written are not given here. * marks the point of attachment. FITC = O=C1OC2(c3ccc(O)cc3Oc3cc(O)ccc32)c2ccc(NC(=S)*)cc21

Legend:
[1] = target: T1, Full-length human CRM1 (HsCRM1) (human, UniProt O14980 1-1071); test: MST; direct titration, right panel
[2] = target: T1, Full-length human CRM1 (HsCRM1); test: MST; direct titration, left panel
[3] = target: T1, Full-length human CRM1 (HsCRM1); test: MST; direct titration, middle panel
[4] = target: T1, Full-length human CRM1 (HsCRM1); test: MST; competition with FITC-PKI^NES

T1 sequence (O14980 whole entry): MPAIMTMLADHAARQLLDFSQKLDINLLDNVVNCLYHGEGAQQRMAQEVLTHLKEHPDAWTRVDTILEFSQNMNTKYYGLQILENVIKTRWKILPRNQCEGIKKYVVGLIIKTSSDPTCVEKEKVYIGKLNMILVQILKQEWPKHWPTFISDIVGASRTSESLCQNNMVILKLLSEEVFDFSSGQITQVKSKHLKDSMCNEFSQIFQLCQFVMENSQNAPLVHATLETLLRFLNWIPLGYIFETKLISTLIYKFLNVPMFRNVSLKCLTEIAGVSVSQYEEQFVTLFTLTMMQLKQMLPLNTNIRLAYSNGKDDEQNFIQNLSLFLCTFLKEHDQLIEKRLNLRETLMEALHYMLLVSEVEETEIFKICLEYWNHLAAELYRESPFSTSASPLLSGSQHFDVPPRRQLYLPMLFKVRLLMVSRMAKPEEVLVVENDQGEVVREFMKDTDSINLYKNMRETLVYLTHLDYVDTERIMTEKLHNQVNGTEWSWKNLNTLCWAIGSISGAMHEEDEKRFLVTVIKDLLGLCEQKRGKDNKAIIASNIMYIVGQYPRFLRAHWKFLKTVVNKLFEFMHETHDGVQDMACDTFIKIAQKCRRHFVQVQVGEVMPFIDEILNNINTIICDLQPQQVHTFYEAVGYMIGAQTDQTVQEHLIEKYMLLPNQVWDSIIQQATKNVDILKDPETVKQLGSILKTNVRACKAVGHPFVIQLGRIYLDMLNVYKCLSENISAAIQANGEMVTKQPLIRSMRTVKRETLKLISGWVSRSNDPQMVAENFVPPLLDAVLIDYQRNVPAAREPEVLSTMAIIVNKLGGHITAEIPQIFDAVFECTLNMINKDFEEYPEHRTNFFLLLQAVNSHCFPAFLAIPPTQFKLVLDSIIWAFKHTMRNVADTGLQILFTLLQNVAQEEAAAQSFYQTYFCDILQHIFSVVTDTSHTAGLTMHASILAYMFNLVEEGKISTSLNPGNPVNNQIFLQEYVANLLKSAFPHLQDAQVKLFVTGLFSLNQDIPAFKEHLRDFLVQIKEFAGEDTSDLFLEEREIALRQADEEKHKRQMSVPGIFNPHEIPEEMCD

Binder | Kd [1] [nM] | Kd [2] [nM] | Kd [3] [nM] | Kd [4] [nM]
{FITC}-SGNSNELALKLAGLDINKT [FITC-PKI^NES peptide (FITC-SGNSNELALKLAGLDINKT)] | 44 | 37 | 30 | 
SNELALKLAGLDI [MBP-PKI^NES] |  |  |  | 36
MEELSQALASSFSVSQ [MBP-SNUPN^NES] |  |  |  | 12000
